Data: PMC3328597

Assays:
[1] = target: His161 (UniProt position 161, …); assay: NMR; details: 50 mM NaCl; 20 mM Tris acetate; free Thr171-phosphorylated peptide, no RNA
[2] = target: His168 (UniProt position 168, …); assay: NMR; details: 50 mM NaCl; 20 mM Tris acetate; free Thr171-phosphorylated peptide, no RNA

HLRQPGIHPKTPNKFKKYSR
pKa [1]: 6.4 | pKa [2]: 5.6
